The results in this text go back to article PMC11655841 (Cell Death & Disease, 2024).

The target in data set [1] is DARPin B9. Briefly: ITC; target proteins (p53 family domains) titrated to constant concentrations of DARPin; 25 °C; 50 mM HEPES pH 7.4, 150 mM NaCl, 0.5 mM TCEP; MicroCal VP-ITC.
Data set [2] has as its target DARPin B9. The experiment in a line: crystal structure; complex of DARPin and p73 domain mixed from purified proteins, isolated by SEC; sitting drop at 20 °C, 30% PEG2000MME, 0.15 M potassium bromide.
In data set [3] the target is DARPin 1800 LZ (DARPin 1800 dimerized via a leucine zipper) (yeast) (UniProt P03069). The experiment in a line: ITC; target proteins (p53 family domains) titrated to constant concentrations of DARPin; 25 °C; 50 mM HEPES pH 7.4, 150 mM NaCl, 0.5 mM TCEP; MicroCal VP-ITC.
In data set [4] the target is DARPin 1800. Described as above.
Data set [5] deals with DARPin 1800–1800 (DARPin 1800 fused to another DARPin 1800 via a (G4S)4 linker). The data set is described as above.
For data set [6], the target named is DARPin B9 LZ (DARPin B9 dimerized via a leucine zipper) (yeast) (UniProt P03069). The description is as above.
The target of data set [7] is DARPin B9-B9 (DARPin B9 fused to another DARPin B9 via a (G4S)4 linker). Described as above.
Data set [8] concerns the target DARPin 1800. The experiment in a line: crystal structure; complex of DARPin and p73 domain mixed from purified proteins, isolated by SEC; sitting drop at 20 °C, 30% PEG2000MME, 0.15 M potassium bromide. Particulars: scale: DARPin 1800 per p73 OD. For orientation: SEC sorts molecules by how far they enter the pores of the column.
Data set [9] concerns the molecule itself. Described as above.

B1: p73 SAM domain (aa 489–550 of TAp73α) (domain or fragment)
chain: ADPSLVSFLTGLGCPNCIEYFTSQGLQSIYHLQNLTIEDLGALKIPEQYRMTIWRGLQDLKQ
As to B1, in [1], the Kd (usually the constant that tells how readily two partners part at equilibrium) was 58.8 nM. The same molecule came in with a stoichiometry N (p73 SAM domain per DARPin B9) in [2] of 1.

B2: p73 DBD-OD-SAM (amino acids 112–550 of TAp73α) (domain or fragment)
chain: APVIPSNTDYPGPHHFEVTFQQSSTAKSATWTYSPLLKKLYCQIAKTCPIQIKVSTPPPPGTAIRAMPVYKKAEHVTDVVKRCPNHELGRDFNEGQSAPASHLIRVEGNNLSQYVDDPVTGRQSVVVPYEPPQVGTEFTTILYNFMCNSSCVGGMNRRPILIIITLEMRDGQVLGRRSFEGRICACPGRDRKADEDHYREQQALNESSAKNGAASKRAFKQSPPAVPALGAGVKKRRHGDEDTYYLQVRGRENFEILMKLKESLELMELVPQPLVDSYRQQQQLLQRPSHLQPPSYGPVLSPMNKVHGGMNKLPSVNQLVGQPPPHSSAATPNLGPVGPGMLNNHGHAVPANGEMSSSHSAQSMVSGSHCTPPPPYHADPSLVSFLTGLGCPNCIEYFTSQGLQSIYHLQNLTIEDLGALKIPEQYRMTIWRGLQDLKQ
For the molecule B2, the Kd in [3] came out at 4 nM; in data set [4], 67 nM; in data set [5], 13 nM; in data set [6] it was 64 nM; in [7] it was 46 nM; in data set [1], 309 nM.

B3: p73 oligomerization domain (aa 351–398 of TAp73α) (domain or fragment, UniProt O15350 351-398, looked up)
chain: DEDTYYLQVRGRENFEILMKLKESLELMELVPQPLVDSYRQQQQLLQR
Take B3: in data set [4], the Kd turned out to be 94.5 nM. In data set [8], the stoichiometry N (commonly a count of units in the complex or per binding partner) was 2. Besides, the binding result in data set [9] is reported as “binds”.
